Test results from publication PMC5472690, “3-Hydroxybenzoate 6-Hydroxylase from Rhodococcus jostii RHA1 Contains a Phosphatidylinositol Cofactor” (Frontiers in Microbiology, 2017).

Assays:
[1] = tested on: O=C(O)c1cccc(O)c1; experiment: purified protein; settings: fixed NADH, 50 mM Tris-SO4, pH 8.0, 25°C
[2] = target: T1, Rj3HB6H (Rhodococcus jostii, UniProt Q0SFK6); experiment: X-ray crystal structure, […] Å; assay type: binding; settings: pH 8.5 precipitant; co-bound phospholipid
T1 construct: gene RHA1_ro01869; full length, C-terminal His6 tag, produced in R. jostii RHA1#2; N-terminal Met lacking; 46,761 Da subunit; homodimer

[3] = substrate: NC(=O)C1=CN([C@@H]2O[C@H](COP(=O)(O)OP(=O)(O)OC[C@H]3O[C@@H](n4cnc5c(N)ncnc54)[C@H](O)[C@@H]3O)[C@@H](O)[C@H]2O)C=CC1; experiment: purified protein; settings: fixed 3-hydroxybenzoate, 50 mM Tris-SO4, pH 8.0, 25°C

In the case of Rj3HB6H (Rhodococcus jostii RHA1), the Km [1] is reported as 35 ± 3 µM and the kcat [1] is reported as 20 ± 1 s⁻¹.

With `Cc1cc2nc3c(=O)[nH]c(=O)nc-3n(C[C@H](O)[C@H](O)[C@H](O)COP(=O)(O)OP(=O)(O)OC[C@H]3O[C@@H](n4cnc5c(N)ncnc54)[C@H](O)[C@@H]3O)c2cc1C` [FAD] the “X-ray crystal structure, 2.3 Å” value [2] was “The isoalloxazine moiety of FAD was refined with full occupancy”.

B1: Rj3HB6H (Rhodococcus jostii RHA1) (protein)
chain: SNLQDARIIIAGGGIGGAANALALAQKGANVTLFERASEFGEVGAGLQVGPHGARILDSWGVLDDVLSRAFLPKNIVFRDAITAEVLTKIDLGSEFRGRYGGPYFVTHRSDLHATLVDAARAAGAELHTGVTVTDVITEGDKAIVSTDDGRTHEADIALGMDGLKSRLREKISGDEPVSSGYAAYRGTTPYRDVELDEDIEDVVGYIGPRCHFIQYPLRGGEMLNQVAVFESPGFKNGIENWGGPEELEQAYAHCHENVRRGIDYLWKDRWWPMYDREPIENWVDGRMILLGDAAHPPLQYLASGAVMAIEDAKCLADYAAEDFSTGGNSAWPQILKEVNTERAPRCNRILTTGRMWGELWHLDGTARIARNELFRTRDTSSYKYTDWLWGYSSDRAS
Work on B1 yielded a Km [3] of 68 ± 5 µM and a kcat [3] of 20 ± 1 s⁻¹.
